The labels stand for the following.
B1: TPR t1 (parent)
chain: GACCAAUCUGCCCUCAGAGCUCGAGAACAUCUUCGGAUGCAGAGGAGGCAGGCUUCGGUGGCGCGAUAGCGCCAACGUCCUCAACCUCCAAUGCAUCCCACCACAUGAUGAUGCCUGAAGAGCCUUGGUUUUUUG

In the series the parent is B1. Description: polymerase ribozyme fitness, log enrichment relative to wild type (log ratio); higher = more active; in vitro selection for triplet polymerase activity. The procedure, abridged:
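Fitness compares each genotype's enrichment to that of the wild type on a logarithmic scale, averaging replicates with inverse-variance weights. The logarithm is base 2. Enrichment came from Illumina sequencing of input and output libraries after one triplicate round of in vitro selection, which included frozen incubation at −7 °C, of PCR-built, transcribed mutant libraries of each subunit of a heterodimeric triplet polymerase ribozyme. Only genotypes with ≥10 input reads and ≥1 read per output were kept.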
As for GACCAAUCUGCCCUCAGAGCUCGAGAACAUCUUCGGAUGCAGAAGAGGCAGGCUUCGGUUGCGCGAUAGCGCCAACGUCCUCAACCUCCAAUGCAUCCCACCACAUGAUGAUGCCUCAAGAGCCUUGGUUUUUUG [G44A G60U G117C], the “polymerase ribozyme fitness (log ratio)” value is -5.36.
For GACCAAUCUGCCCUCAGAGCUCGAGAACAUCUUCGGAUGCAGAAGAGGCAGGCUUCGGUGGCGCGAUAGCGCCAACGUCCUCAACCUCCAAUGCAUCCCACCACAUGAUGAUGCCUGAAGAACCUUGCUUUUUUG [G44A G122A G128C], the “polymerase ribozyme fitness (log ratio)” value was -3.84.
On to GACCAAUCUGCCCUCAGAGCUCGAGAACAUCUUCGGAUGCAGAAGAGGCAGGCUUCGGUGGCGCGAUAUCGCCAACGUCCACAACCUCCAAUGCAUCCCACCACAUGAUGAUGCCUGAAGAGCCUUGGUUUUUUG [G44A G69U U81A], for which the “polymerase ribozyme fitness (log ratio)” value is -0.353.
Under GACCAAUCUGCCCUCAGAGCUCGAGAACAUCUUCGGAUGCAGAAGAGGCAGGGUUCGGUGGCUCGAUAGCGCCAACGUCCUCAACCUCCAAUGCAUCCCACAACGUGAUGAUGCCUCAAGAGCCUUGGUUUUUUG [G44A C53G G63U C102A A105G G117C] stands -7.23.
For GACCAAUCUGCCCUCAGAGCUCGAGAACAUCUUCGGAUGCAGAAGAGGAAGGCUUCGGUGGCGCGAUAGCGCUAACGUCCUCAACCUCCAAUGCAUCCCACCACAUGAUGAUGCCCGAAGAGCCUUGGUUUUUUG [G44A C49A C73U U116C], the “polymerase ribozyme fitness (log ratio)” value was -2.91.
For GACCAAUCUGCCCUCAGAGCUCGAGAACAUCUUCGGAUGCAGAAGAUGCAGGCUUCGGUGGCGCGAUAGCGCCAACGCCCUCAACCUCCAAUGCAUCCCACCACAUGAUAAUGCCUGAAGAGCCUUGGUUUUUUG [G44A G47U U78C G110A], the “polymerase ribozyme fitness (log ratio)” value was -3.74.
In the case of GACCAAUCUGCCCUCAGAGCUCGAGAACAUCUUCGGAUGCAGAAGAGGAAGGCUUCGGUGGCGCGAUAGCGCCAAAGUCCUCAACCUCCAAUGCAUCCCACCACAAGAUGAUGCCUGAAGAGCCUUGGUUUUUUG [G44A C49A C76A U106A], the “polymerase ribozyme fitness (log ratio)” value was -3.36.
For GACCAAUCUGCCCUCAGAGCUCGAGAACAUCUUCGGAUGCAGAAGAGGUAGGCUUCGGUGGCGCGAUAGCGCCAACGUCCUCAACCUCCAAUGCAUCCCACCACACGAUGAUGCCUGAAGAGCCUUGGUUUUUUG [G44A C49U U106C], the “polymerase ribozyme fitness (log ratio)” value is -2.86.
GACCAAUCUGCCCUCAGAGCUCGAGAACAUCUUCGGAUGCAGAAGAGGCAGGCUUCGGUGGCGCGAUAGCCCCAACGUCCUCAACCUCCAAUGCAUCCCACCACAUGAUGAUGCCUGAAGAGCCAUGGCUUUUUG [G44A G71C U125A U129C]: the “polymerase ribozyme fitness (log ratio)” value was -4.8.
On to GACCAAUCUGCCCUCAGAGCUCGAGAACAUCUUCGGAUGCAGAAGAGGCAGGCUUCGGUCGCGCGAUAGCGCCAACGUCCUCAACCUCCAAUGCAUCCCACCACAUGAUGAUGCCUGAAGAGCAUUGGUUUUUUG [G44A G60C C124A], for which the “polymerase ribozyme fitness (log ratio)” value stood at 0.703.
On to GACCAAUCUGCCCUCAGAGCUCGAGAACAUCUUCGGAUGCAGAAGAGGCAGGCUUCGGUGGCGCGAUAGCGCCAACGUCCUCAACCUCCAAUGCAUCCCAACACAUGAAGAUGCCUGAAGAGCCUUGGUUUUUUG [G44A C101A U109A], for which the “polymerase ribozyme fitness (log ratio)” value was -5.41.
As to GACCAAUCUGCCCUCAGAGCUCGAGAACAUCUUCGGAUGCAGAAGAGGCAGGCUUCGGUGGCGCGAUAGCGCCAACGUCCUCAACCUCCAAUGCAUCCCACCACAUGAUGAUGCCUGAAGGGCCUUGGUUUUUUG [G44A A121G], the “polymerase ribozyme fitness (log ratio)” value is 1.53.
As for GACCAAUCUGCCCUCAGAGCUCGAGAACAUCUUCGGAUGCAGAAGAGGCAAGCUUCGGUGGCGCGAUAGCGCCAACGUCCUCAACCUCCAAUGCAUCCCACCAUAUGAUGAUGCGUGAAGCGCAUUGGUUUUUUG [G44A G51A C104U C115G A121C C124A], the “polymerase ribozyme fitness (log ratio)” value was -5.73.
To GACCAAUCUGCCCUCAGAGCUCGAGAACAUCUUCGGAUGCAGAAGAGGCAGGCUUUGGUGGCGCGAUAGCGUCAACGUCCUCAACCUCCAAUGCAUCCCACCACAUGAUGAUGCCUGAACAGCCUUGGCUUUUUG [G44A C56U C72U G120C U129C] belongs -2.55; to GACCAAUCUGCCCUCAGAGCUCGAGAACAUCUUCGGAUGCAGAAGAGGCAGGCUUCGGUGCCGCGAUAGCGCCAACGUCCUCAACCUCCAAUGCAUCCCACCACAUGAUGAUGCCUGAAGAGCCUUGGUUUUUUG [G44A G61C], -3.11.
To GACCAAUCUGCCCUCAGAGCUCGAGAACAUCUUCGGAUGCAGAAGAGGCAGUCUUCGGUGGCUCGAUAGCGCCAACGUCCUCAACCACCAAUGCAUCCCACCACAUGAUGAUGCCUGAAGAGCCUUGGUUUUUUG [G44A G52U G63U U87A] belongs -5.6; to GACCAAUCUGCCCUCAGAGCUCGAGAACAUCUUCGGAUGCAGAAGAGGCAGGCUUCGGUGGCGCGAUAGCGCCAACGUACUCAACCUCCAAUGCAUCCCACCACAUGAUGAUGCCUGAAGAGCCUUGGUUUUUUG [G44A C79A], -3.11.
For GACCAAUCUGCCCUCAGAGCUCGAGAACAUCUUCGGAUGCAGAAGAGGCAGGCUUCGGUGGCGCGAUAGCGGCAACGUCCUCAACCUCCAAUGCAUCCCACCACAUGAUGAGGCCUAAAGAGCCUUGGUUUUUUG [G44A C72G U112G G117A], the “polymerase ribozyme fitness (log ratio)” value was -5.1.
Consider GACCAAUCUGCCCUCAGAGCUCGAGAACAUCUUCGGAUGCAGAAGAGGCAGGCUUCGGUGGCGCGAUAGCACCAACGUCCUCAACCUCCAAUGCAUCCCACCACAUGAUGAUGCCUGAAGAGCCUUGGUUUUUUG [G44A G71A], for which the “polymerase ribozyme fitness (log ratio)” value was -2.54.
As to GACCAAUCUGCCCUCAGAGCUCGAGAACAUCUUCGGAUGCAGAAGAGGCAGGCUUCGGUGGCACGAUAGCGCCAACGUCAUCAACCUCCAAUGCAUCCCACCACAUGAUUAUGCGUGAAGAGCCUUGGUUUUUUG [G44A G63A C80A G110U C115G], the “polymerase ribozyme fitness (log ratio)” value is -7.37.
GACCAAUCUGCCCUCAGAGCUCGAGAACAUCUUCGGAUGCAGAAGAGGCAGGCUUCGGUGUCGCGAUAGCGCCAACGUCCUCAACCUGCAAUGCAUCCCACCACAUGAUGAUGCCUGAAGAGCCUUGGUUUUUUG [G44A G61U C88G]: the “polymerase ribozyme fitness (log ratio)” value is -2.64.

The values are drawn from the RNAGym collection of RNA variant scans (doi:10.1073/pnas.2313332121).
